Measured values as given in paper PMC7847995, “Site-directed mutagenesis identified the key active site residues of alcohol acyltransferase PpAAT1 responsible for aroma biosynthesis in peach fruits” (Horticulture Research, 2021).
Positions count from the first letter of the chain named. In names and notes the source's numbering stands.

What was measured:
PpAAT1 = target: T1, PpAAT1 (Prunus persica, UniProt M5WU76); assay: esterification assay; assay type: biochemical; settings: co-substrate acetyl-CoA
T1 construct: gene AAT1; codon-optimised, C-terminal polyhistidine tag, pET-30a(+), expressed in E. coli, purified; HxxxD motif HAMCD at H165-D169
T1 sequence (M5WU76 entry or part of it): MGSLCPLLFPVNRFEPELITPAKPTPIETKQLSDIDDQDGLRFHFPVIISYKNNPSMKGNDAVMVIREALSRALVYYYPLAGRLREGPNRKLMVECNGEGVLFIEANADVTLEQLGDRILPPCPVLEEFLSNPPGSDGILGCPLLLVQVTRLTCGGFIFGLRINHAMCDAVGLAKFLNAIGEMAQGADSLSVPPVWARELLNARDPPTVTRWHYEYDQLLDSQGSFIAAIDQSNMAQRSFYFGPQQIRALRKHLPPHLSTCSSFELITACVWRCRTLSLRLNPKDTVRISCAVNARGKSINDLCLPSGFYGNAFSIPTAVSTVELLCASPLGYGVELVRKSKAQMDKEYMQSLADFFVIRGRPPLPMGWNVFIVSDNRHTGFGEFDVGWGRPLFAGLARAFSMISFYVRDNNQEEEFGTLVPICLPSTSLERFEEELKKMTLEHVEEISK

[1] = substrate: CCCCCCC(O)CCC(=O)SCCNC(=O)CCNC(=O)[C@H](O)C(C)(C)COP(=O)(O)OP(=O)(O)OC[C@H]1O[C@@H](n2cnc3c(N)ncnc32)[C@H](O)[C@@H]1OP(=O)(O)O; assay: GC-MS of gamma-decalactone formation; assay type: biochemical, Prunus persica; settings: internal esterification to gamma-decalactone; ±SE, n = 3
From the text: GC-MS of gamma-decalactone formation on PpAAT1

Molecule: OCc1ccccc1 [benzyl alcohol]
- Kcat/Km (PpAAT1; product phenylmethyl acetate): acetyl–CoA and four different alcohols (propanol, hexanol, benzyl alcohol, and decanol)

Molecule: CCCCCCO [hexanol]
- Kcat/Km (PpAAT1; product hexyl acetate): a higher Kcat/Km ratio was observed in all substitutions when hexanol was used as the substrate

Molecule: CCCO [propanol]
- Kcat/Km (PpAAT1; product propyl acetate): acetyl–CoA and four different alcohols (propanol, hexanol, benzyl alcohol, and decanol)

Molecule: CCCCCCCCCCO [decanol]
- Kcat/Km (PpAAT1; product decyl acetate): acetyl–CoA and four different alcohols (propanol, hexanol, benzyl alcohol, and decanol)

B1: PpAAT1 (Prunus persica; K298F) (protein)
chain: MGSLCPLLFPVNRFEPELITPAKPTPIETKQLSDIDDQDGLRFHFPVIISYKNNPSMKGNDAVMVIREALSRALVYYYPLAGRLREGPNRKLMVECNGEGVLFIEANADVTLEQLGDRILPPCPVLEEFLSNPPGSDGILGCPLLLVQVTRLTCGGFIFGLRINHAMCDAVGLAKFLNAIGEMAQGADSLSVPPVWARELLNARDPPTVTRWHYEYDQLLDSQGSFIAAIDQSNMAQRSFYFGPQQIRALRKHLPPHLSTCSSFELITACVWRCRTLSLRLNPKDTVRISCAVNARGFSINDLCLPSGFYGNAFSIPTAVSTVELLCASPLGYGVELVRKSKAQMDKEYMQSLADFFVIRGRPPLPMGWNVFIVSDNRHTGFGEFDVGWGRPLFAGLARAFSMISFYVRDNNQEEEFGTLVPICLPSTSLERFEEELKKMTLEHVEEISK
notes: codon-optimised, C-terminal polyhistidine tag, pET-30a(+), expressed in E. coli, purified; HxxxD motif HAMCD at H165-D169
- Km [1]: 10.1014 (±1.4928) mM
- kcat [1]: 0.451 ± 0.0624 s⁻¹
- kcat/Km [1]: 44.1 ± 7.9 M⁻¹ s⁻¹

B2: PpAAT1 (Prunus persica; A170S) (protein)
chain: B1 chain with A170S, F298K
notes: as for B1
- Km [1]: 4.5852 (±0.6923) mM
- kcat [1]: 1.28 ± 0.1 s⁻¹
- kcat/Km [1]: 278 ± 19.4 M⁻¹ s⁻¹

B3: PpAAT1 (Prunus persica; K342F) (protein)
chain: B1 chain with F298K, K342F
notes: as for B1
- Km [1]: 5.0532 (±0.3364) mM
- kcat [1]: 1.32 ± 0.0927 s⁻¹
- kcat/Km [1]: 262 ± 74.2 M⁻¹ s⁻¹

B4: PpAAT1 (Prunus persica) (protein)
chain: B1 chain with F298K
notes: as for B1
- Km [1]: 2.6187 (±0.2511) mM
- kcat [1]: 2.72 ± 0.146 s⁻¹
- kcat/Km [1]: 1040 ± 91.6 M⁻¹ s⁻¹

B5: PpAAT1 (Prunus persica; A174S) (protein)
chain: B1 chain with A174S, F298K
notes: as for B1
- Km [1]: 9.1599 (±1.0952) mM
- kcat [1]: 0.399 ± 0.048 s⁻¹
- kcat/Km [1]: 43.6 ± 6.9 M⁻¹ s⁻¹

B6: PpAAT1 (Prunus persica; F264Y) (protein)
chain: B1 chain with F264Y, F298K
notes: as for B1
- Km [1]: 3.0241 (±0.5145) mM
- kcat [1]: 2.53 ± 0.287 s⁻¹
- kcat/Km [1]: 836 ± 122 M⁻¹ s⁻¹

B7: PpAAT1 (Prunus persica; S262A) (protein)
chain: B1 chain with S262A, F298K
notes: as for B1
- Km [1]: 2.9920 (±0.3836) mM
- kcat [1]: 2.36 ± 0.364 s⁻¹
- kcat/Km [1]: 790 ± 190 M⁻¹ s⁻¹

B8: PpAAT1 (Prunus persica; F314Y) (protein)
chain: B1 chain with F298K, F314Y
notes: as for B1
- Km [1]: 4.2018 (±0.5997) mM
- kcat [1]: 1.11 ± 0.119 s⁻¹
- kcat/Km [1]: 265 ± 31.1 M⁻¹ s⁻¹

B9: PpAAT1 (Prunus persica; H379V) (protein)
chain: B1 chain with F298K, H379V
notes: as for B1
- Km [1]: 8.2152 (±0.9510) mM
- kcat [1]: 0.362 ± 0.0249 s⁻¹
- kcat/Km [1]: 44.1 ± 3.6 M⁻¹ s⁻¹

B10: PpAAT1 (Prunus persica; R339V) (protein)
chain: B1 chain with F298K, R339V
notes: as for B1
- Km [1]: 8.8556 (±1.4954) mM
- kcat [1]: 0.322 ± 0.0547 s⁻¹
- kcat/Km [1]: 36.3 ± 5.1 M⁻¹ s⁻¹

B11: PpAAT1 (Prunus persica; F382Y) (protein)
chain: B1 chain with F298K, F382Y
notes: as for B1
- Km [1]: 9.0224 (±0.7366) mM
- kcat [1]: 0.373 ± 0.0138 s⁻¹
- kcat/Km [1]: 41.3 ± 2.7 M⁻¹ s⁻¹
